Results published in patent US20190016826A1 (Genentech, published 2019).
Residue numbers refer to the chain shown, from its start. Blank lines part the entries; values can stand above or below the binder they belong to.

What was measured:
[1] = target: T1, Full length murine HtrA1 (MuHtrA1) (P24-P480), N-terminal His6 tag (murine, UniProt Q9R118 24-480); assay: cell-based or functional assay
[2] = target: T2, Full length human HtrA1 (HuHtrA1) (Q23-P480), N-terminal His6 tag (human, UniProt Q92743 23-480); assay: cell-based or functional assay
T2 sequence (Q92743 other isoform, or with tags, fused parts or gaps): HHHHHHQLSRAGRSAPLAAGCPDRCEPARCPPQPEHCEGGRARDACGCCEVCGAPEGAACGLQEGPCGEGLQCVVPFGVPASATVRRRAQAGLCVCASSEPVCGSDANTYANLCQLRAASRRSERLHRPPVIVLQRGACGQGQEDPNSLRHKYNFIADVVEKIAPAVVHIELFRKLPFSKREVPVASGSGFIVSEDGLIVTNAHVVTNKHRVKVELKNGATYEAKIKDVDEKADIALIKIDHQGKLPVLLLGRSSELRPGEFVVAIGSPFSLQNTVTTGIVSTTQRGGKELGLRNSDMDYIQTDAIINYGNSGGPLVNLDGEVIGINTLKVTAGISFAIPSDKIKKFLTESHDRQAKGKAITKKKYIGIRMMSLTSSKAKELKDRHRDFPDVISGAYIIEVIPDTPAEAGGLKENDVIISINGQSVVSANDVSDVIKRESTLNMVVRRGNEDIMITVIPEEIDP

HuHtrA1_PD(K225A) = target: T3, HuHtrA1_PD(K225A) (human, UniProt F1N152 168-386 (bovine entry)); assay: binding ELISA, plate coated with mutant at 1 ug/ml, 20 min incubation
T3 construct: Alanine mutant of HuHtrA1_PD; also called HuHtrA1 mutant K225A; not shown: thrombin cleavage site
T3 chain: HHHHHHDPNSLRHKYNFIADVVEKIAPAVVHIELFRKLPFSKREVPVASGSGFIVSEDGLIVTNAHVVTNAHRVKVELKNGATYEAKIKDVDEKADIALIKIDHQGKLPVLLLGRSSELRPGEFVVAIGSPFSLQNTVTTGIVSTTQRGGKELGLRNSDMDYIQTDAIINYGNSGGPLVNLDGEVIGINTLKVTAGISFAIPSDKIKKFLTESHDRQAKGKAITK

HuHtrA1_PD(K243A) = target: T4, HuHtrA1_PD(K243A) (human, UniProt F1N152 168-386 (bovine entry)); assay: as above
T4 construct: Alanine mutant of HuHtrA1_PD; also called HuHtrA1 mutant K243A; not shown: thrombin cleavage site
T4 chain: T3 chain with A71K, K89A

HuHtrA1_PD(H220A) = target: T5, HuHtrA1_PD(H220A) (human, UniProt F1N152 168-386 (bovine entry)); assay: as above
T5 construct: Alanine mutant of HuHtrA1_PD; also called HuHtrA1 mutant H220A; not shown: thrombin cleavage site
T5 chain: T3 chain with H66A, A71K

HuHtrA1_PD(V201A) = target: T6, HuHtrA1_PD(V201A) (human, UniProt F1N152 168-386 (bovine entry)); assay: as above
T6 construct: Alanine mutant of HuHtrA1_PD; also called HuHtrA1 mutant V201A; not shown: thrombin cleavage site
T6 chain: T3 chain with V47A, A71K

HuHtrA1_PD(T223A) = target: T7, HuHtrA1_PD(T223A) (human, UniProt F1N152 168-386 (bovine entry)); assay: as above
T7 construct: Alanine mutant of HuHtrA1_PD; also called HuHtrA1 mutant T223A; not shown: thrombin cleavage site
T7 chain: T3 chain with T69A, A71K

HuHtrA1_PD(E247A) = target: T8, HuHtrA1_PD(E247A) (human, UniProt F1N152 168-386 (bovine entry)); assay: as above
T8 construct: Alanine mutant of HuHtrA1_PD; also called HuHtrA1 mutant E247A; not shown: thrombin cleavage site
T8 chain: T3 chain with A71K, E93A

[3] = target: T2, Full length human HtrA1 (HuHtrA1) …; assay: SPR (BIAcore T100), single-cycle kinetics, biotinylated human HtrA1 captured on streptavidin, Fab in solution
Description: (§1) To determine the binding affinity of HtrA1 antibodies by single cycle kinetics, Surface Plasmon Resonance (SRP) measurement with a BIAcore™ T100 instrument was used. Briefly, a series S sensor chip CM5 was activated with EDC and NHS reagents according to the supplier's instructions, and streptavidin (Pierce) was coupled to achieve approximately 2000 response units (RU), followed by blocking un-reacted groups with 1M ethanolamine.
(§2) For kinetics measurements, biotinylated human or murine HtrA1 was first injected at 10 ul/min flow rate to capture approximately 100 RU at 3 different flow cells (FC), except for FC1 (reference), and then 5-fold serial dilutions of anti-HtrA1 Fab in HBS-P buffer (0.01M HEPES pH 7.4, 0.15M NaCl, 0.005% surfactant P20) from low (0.48 nM) to high (300 nM) [5 points] were injected (flow rate: 30 μl/min) one after the other in the same cycle with no regeneration between injections. The sensorgram was recorded and subject to reference and buffer subtraction before evaluation by BIAcore™ T100 Evaluation Software (version 2.0). Association rates (km) and dissociation rates (koff) were calculated using a simple one-to-one Langmuir binding model. The equilibrium dissociation constant (Kd) was calculated as the ratio koff/kₒₙ.

[4] = target: T1, Full length murine HtrA1 (MuHtrA1) …; assay: SPR (BIAcore T100), single-cycle kinetics, biotinylated murine HtrA1 captured on streptavidin, Fab in solution
Description: as §1, §2

[5] = target: T2, Full length human HtrA1 (HuHtrA1) …; assay: phage competition ELISA: Fab-phage pre-incubated with serially diluted soluble HuHtrA1 (x axis), unbound phage captured on HuHtrA1-coated plate
Description: (§3) MAXISORP™ microtiter plates were coated with HuHtrA1 at 2 μg/ml in PBS for 2 hr at RT and then blocked with PBST buffer for another hour at RT. Purified phage from culture supernatants were incubated with serially diluted HuHtrA1 or MuHtrA1 in PBST buffer in a tissue-culture microtiter plate for an hour, after which 80 μl of the mixture was transferred to the HuHtrA1-coated wells for 15 minutes to capture unbound phage. The plate was washed with PBT buffer, and HRP-conjugated anti-M13 (Amersham Pharmacia Biotech) was added (1:5000 in PBST buffer) for one hour. The plate was washed with PBT buffer and developed by adding tetramethylbenzidine substrate (Kirkegaard and Perry Laboratories, Gaithersburg, Md.). The absorbance at 450 nm was plotted as a function of HuHtrA1 or MuHtrA1 concentration in solution to determine phage IC₅₀.

[6] = target: Protease domain of human HtrA1 (HuHtrA1_PD), residues D161-K379 (human, UniProt F1N152 168-386 (bovine entry)); assay: cell-based or functional assay
Sequence of Protease domain of human HtrA1 (HuHtrA1_PD), residues D161-K379 (F1N152 other isoform, or with tags, fused parts or gaps): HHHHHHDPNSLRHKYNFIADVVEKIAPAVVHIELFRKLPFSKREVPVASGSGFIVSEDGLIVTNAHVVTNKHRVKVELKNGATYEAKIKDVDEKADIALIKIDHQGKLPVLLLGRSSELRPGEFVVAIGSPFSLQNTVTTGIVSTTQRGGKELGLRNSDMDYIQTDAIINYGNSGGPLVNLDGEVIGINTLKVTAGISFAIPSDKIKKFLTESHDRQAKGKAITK

[7] = target: T2, Full length human HtrA1 (HuHtrA1) …; assay: cell-based or functional assay; remark: listed apart in the source
[8] = target: T1, Full length murine HtrA1 (MuHtrA1) …; assay: phage competition ELISA: Fab-phage pre-incubated with serially diluted soluble MuHtrA1 (x axis), unbound phage captured on HuHtrA1-coated plate
Description: as §3

T1 sequence (Q9R118 other isoform, or with tags, fused parts or gaps): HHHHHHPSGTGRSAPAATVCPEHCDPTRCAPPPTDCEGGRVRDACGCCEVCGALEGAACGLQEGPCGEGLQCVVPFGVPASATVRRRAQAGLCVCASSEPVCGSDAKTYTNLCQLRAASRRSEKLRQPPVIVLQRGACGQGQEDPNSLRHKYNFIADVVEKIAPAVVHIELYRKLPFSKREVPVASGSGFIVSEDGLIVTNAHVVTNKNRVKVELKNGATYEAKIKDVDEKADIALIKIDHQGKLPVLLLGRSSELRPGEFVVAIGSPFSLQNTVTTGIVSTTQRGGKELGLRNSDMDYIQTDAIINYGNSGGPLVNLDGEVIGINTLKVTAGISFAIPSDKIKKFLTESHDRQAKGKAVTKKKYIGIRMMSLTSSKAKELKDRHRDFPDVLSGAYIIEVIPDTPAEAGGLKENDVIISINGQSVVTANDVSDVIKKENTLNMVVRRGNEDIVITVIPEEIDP

B1: IgG94 (anti-HtrA1 antibody YW505.94, IgG format) (antibody, V domains shown)
VH: EVQLVESGGGLVQPGGSLRLSCAASGFNISGYYIHWVRQAPGKGLEWVGWIDPYGGDTNYADSVKGRFTISADTSKNTAYLQMNSLRAEDTAVYYCARGTFLTSWGHYFDYWGQGT
VL: DIQMTQSPSSLSASVGDRVTITCRASQDVSTAVAWYQQKPGKAPKLLIYSASFLYSGVPSRFSGSGSGTDFTLTISSLQPEDFATYYCQQSYTTPPTFGQGTKVEIKR
notes: The VH as printed ends at WGQGT; also called antibody 94; Ab94
IC50, inhibition of BODIPY FL casein hydrolysis [1]: 5.4 nM
IC50, inhibition of BODIPY FL casein hydrolysis [2]: 8.3 nM
IC50, inhibition of H2-Opt peptide hydrolysis (FRET assay) [2]: 1.8 nM
fold increase in inhibitory potency of IgG94 vs. Fab94 [2]: ~16 fold
fold reduction in binding (alanine mutant) (HuHtrA1_PD(K225A)): ≥ 5 fold
fold reduction in binding (alanine mutant) (HuHtrA1_PD(K243A)): ≥ 5 fold
fold reduction in binding (alanine mutant) (HuHtrA1_PD(H220A)): ≥ 5 fold
fold reduction in binding (alanine mutant) (HuHtrA1_PD(V201A)): ≥ 5 fold
fold reduction in binding (alanine mutant) (HuHtrA1_PD(T223A)): ≥ 5 fold
fold reduction in binding (alanine mutant) (HuHtrA1_PD(E247A)): ≥ 5 fold

B2: YW505.94a Fab (Fab, V domains shown)
VH: B1 VH with N28S
VL: B1 VL
notes: Tested as Fab
Kd [3]: 55 nM
koff [3]: 0.0448 s⁻¹
kon [3]: 813000 M⁻¹ s⁻¹
Kd [4]: 58 nM
koff [4]: 0.0856 s⁻¹
kon [4]: 1.48e+06 M⁻¹ s⁻¹
IC50 (read off the curve) [5]: ~6 nM

Second part, the binder after the results:

IC50, inhibition of H2-Opt hydrolysis (FRET assay, 1.5 nM HuHtrA1_PD) [6]: 0.229 nM
IC50, inhibition of H2-Opt hydrolysis (FRET assay, 1.0 nM HuHtrA1) [7]: 0.335 nM
B3: YW505.94a.28 IgG (antibody, V domains shown)
VH: B1 VH with N28S
VL: B1 VL with D28S, V29I, S30N, A32Y, V33L, Y92D, T93D

Kd [3]: 2.6 nM
koff [3]: 0.00784 s⁻¹
kon [3]: 2.97e+06 M⁻¹ s⁻¹
IC50 (read off the curve) [8]: ~2 nM
Kd [4]: 1.6 nM
koff [4]: 0.00455 s⁻¹
kon [4]: 2.82e+06 M⁻¹ s⁻¹
IC50 (read off the curve) [5]: ~0.5 nM
B4: YW505.94a.54 Fab (Fab, V domains shown)
VH: B1 VH with N28S
VL: B1 VL with D28V, S30G, T31N, A32Y, V33L, Y92D, T93D, T94H

IC50, inhibition of H2-Opt hydrolysis (FRET assay, 1.5 nM HuHtrA1_PD) [6]: 2.03 nM
IC50, inhibition of H2-Opt hydrolysis (FRET assay, 1.0 nM HuHtrA1) [7]: 1.95 nM
Kd [3]: 3.4 nM
koff [3]: 0.00574 s⁻¹
kon [3]: 1.69e+06 M⁻¹ s⁻¹
Kd [4]: 4.6 nM
koff [4]: 0.0093 s⁻¹
kon [4]: 2.02e+06 M⁻¹ s⁻¹
B5: YW505.94a.28 Fab (Fab, V domains shown)
VH: B1 VH with N28S
VL: B1 VL with D28S, V29I, S30N, A32Y, V33L, Y92D, T93D
